The numbers were not newly measured in article PMC6451094, which cites them from elsewhere.

This data set addresses TBP (Saccharomyces cerevisiae) (UniProt P13393).
UniProt P13393, sequence (P13393 2-240): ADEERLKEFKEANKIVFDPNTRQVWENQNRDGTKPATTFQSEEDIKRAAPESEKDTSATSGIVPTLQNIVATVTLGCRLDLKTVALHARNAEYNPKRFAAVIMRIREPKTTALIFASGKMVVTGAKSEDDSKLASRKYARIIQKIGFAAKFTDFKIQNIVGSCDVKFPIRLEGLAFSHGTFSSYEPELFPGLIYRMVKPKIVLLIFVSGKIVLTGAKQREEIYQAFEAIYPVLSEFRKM

In the case of Mot1 (from UniProt P32333), the dissociation constant Kd is 1.5 nM.
